# Measured values from article PMC2628355, “The inhibition of assembly of HIV-1 virus-like particles by 3-O-(3',3'-dimethylsuccinyl) betulinic acid (DSB) is counteracted by Vif and requires its Zinc-binding domain” (Virology Journal, 2008).
# B1: oligohistidine-tagged HIV-1 Vpr protein (natural protein, UniProt P69726 1-96, looked up)
# chain: MEQAPEDQGPQREPHNEWTLELLEELKNEAVRHFPRIWLHGLGQHIYETYGDTWAGVEAIIRILQQLLFIHFRIGCRHSRIGVTRQRRARNGASRS
# notes: HIV-1 Vpr; also called His-tagged Vpr; source: Sf9 cells infected with recombinant baculovirus AcMNPV-Vpr (obtained from Eric Cohen); in cells and in extracellular VLP
# Legend:
# [1] = biological target: VifsubCΔ170, triple mutant of HIV-1 Vif (subA+subB and deletion of the 23 C-terminal residues) (HIV-1); assay: SDS-PAGE and immunoblotting (dimer band); whole cell lysates or VLP of baculovirus-infected Sf9 cells on SDS-denaturing 12% polyacrylamide gels, blotted with anti-His or anti-Vif antibody; a band at twice the monomer's mass
# [2] = biological target: the molecule itself; assay: as above
Molecule,stoichiometry N [1],stoichiometry N [2]
"VifsubCΔ170, triple mutant of HIV-1 Vif (subA+subB and deletion of the 23 C-terminal residues) (domain or fragment)",2,
B1,,2
